Source: patent US20040087498A1, “Modified factor VII” (Novo Nordisk Health Care AG, priority 1991, published 2004)
Where two headings read alike, the source gives them in different places. Each block holds one molecule with its values, some of them ahead of it.

What was measured:
[1] = target: purified recombinant soluble tissue factor
[2] = target: tissue factor preparation, saline extract of baboon brain (baboon)
[3] = target: cell-surface tissue factor on baboon smooth muscle cells (baboon)
[4] = test system: Factor VII-deficient plasma; test: One-stage clotting assay of coagulant activity; format: biochemical, human
Protocol: The ability of the modified Factor VII protein to inhibit clotting was measured in a one-stage clotting assay using wild-type Factor VII as a control. Recombinant proteins were prepared essentially as described above from cells cultured in media containing 5 μg/ml vitamin K. Varying amounts of the modified Factor VII (from clone 544) or recombinant wild-type Factor VII were diluted in 50 mM Tris pH 7.5, 0.1% BSA to 100 μl. The mixtures were incubated with 100 μl of Factor VII-deficient plasma (George King Bio-Medical Inc., Overland Park, Kans.) and 200 μl of thromboplastin C (Dade, Miami, Fla.; contains rabbit brain thromboplastin and 11.8 mM Ca^++). The clotting assay was performed in an automatic coagulation timer (MLA Electra 800, Medical Laboratory Automation Inc., Pleasantville, N.Y.), and clotting times were converted to units of Factor VII activity using a standard curve constructed with 1:5 to 1:640 dilutions of normal pooled human plasma (assumed to contain-one unit per ml Factor VII activity; prepared by pooling citrated […] from healthy donors). […] Factor VII activity is seen as a reduction in clotting time over control samples.

[5] = target: T1, tissue factor (thromboplastin) (Oryctolagus cuniculus, UniProt P24055); test: One-step clotting mixing assay with a limiting amount of tissue factor; format: biochemical, rabbit
T1 construct: contains rabbit brain thromboplastin; purchased Dade, Miami, Fla. thromboplastin-C; host or cells: rabbit brain extract
T1 sequence (P24055 33-292): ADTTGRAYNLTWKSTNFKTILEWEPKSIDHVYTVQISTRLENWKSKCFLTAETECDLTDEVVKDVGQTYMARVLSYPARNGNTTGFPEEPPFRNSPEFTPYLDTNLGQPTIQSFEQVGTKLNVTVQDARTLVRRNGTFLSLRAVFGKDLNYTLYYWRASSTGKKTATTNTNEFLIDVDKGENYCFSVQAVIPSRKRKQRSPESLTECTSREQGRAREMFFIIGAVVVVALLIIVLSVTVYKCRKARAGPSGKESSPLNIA
Protocol: The ability of the modified Factor VII to compete with wild-type Factor VII for tissue factor and inhibit its clotting activity was assessed in a one-step clotting assay in the presence of a limiting amount of tissue factor (thromboplastin).
Clotting times were determined in a one-step assay similar to that described in Example II. A limited amount of tissue factor, a constant amount of wild type Factor VII, and increasing amounts of variant Factor VII were used in the mixing experiments. An inhibition of Factor VII/VIIa procoagulant activity would be seen as an increase in clotting time in assays containing increasing amounts of variant Factor VII.
The amount of Factor VII activity in the test samples was calculated as a percentage of a standard curve that measured Factor VII activity in normal pooled plasma. The standard curve for Factor VII activity was generated using serial dilutions of normal pooled plasma in phosphate buffered solution (PBS) that ranged from 1:5 to 1:640. For this purpose it was assumed that normal plasma contains approximately 500 ng/ml of Factor VII and this was considered to be one unit of activity. A mixture of 100 μl Factor VII-deficient plasma, 100 μl plasma dilution and 200 μl of thromboplastin-C (Dade, Miami, Fla.) was used to measure clotting time on a MLA Electra 800 automatic timer. To establish the standard curve, the results were graphed as percentage of activity (1:5=100% activity) versus clotting time in seconds.
The assay required that the medium containing the wild type and variant Factor VII be composed of less than one percent serum. The dilutions were made in PBS so that clotting times would fall along the standard curve. A minimum dilution of 1:2 was typical. The final volume was 100 μl. Two different human Factor VII Ser344→Ala variants, designated clones “#10” and “#6” were tested in the experiments.

[6] = in vivo; cited from earlier work
[7] = target: tissue factor (thromboplastin C, rabbit brain thromboplastin) (rabbit) (UniProt P24055)
[8] = target: purified recombinant soluble tissue factor; remark: listed apart in the source
[9] = target: T2, cell-surface tissue factor on rat vascular smooth muscle cells (rat) (UniProt P42533)
T2 sequence: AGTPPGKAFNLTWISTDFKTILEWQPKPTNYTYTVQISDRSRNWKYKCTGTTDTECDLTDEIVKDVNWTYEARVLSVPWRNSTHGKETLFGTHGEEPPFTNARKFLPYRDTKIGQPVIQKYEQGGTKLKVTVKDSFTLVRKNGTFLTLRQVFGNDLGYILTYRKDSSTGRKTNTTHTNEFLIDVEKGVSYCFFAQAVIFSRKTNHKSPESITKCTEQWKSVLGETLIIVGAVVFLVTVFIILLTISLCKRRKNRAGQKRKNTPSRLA

[10] = target: T2, cell-surface tissue factor on rat vascular smooth muscle cells (rat); remark: listed apart in the source
[11] = target: T2, cell-surface tissue factor on rat vascular smooth muscle cells (rat); remark: listed apart in the source
[12] = variant medium 10 μl + B4A1 (wild type) medium 10 μl
[13] = variant medium 20 μl + B4A1 (wild type) medium 10 μl
[14] = variant medium 30 μl + B4A1 (wild type) medium 10 μl
[15] = variant medium 40 μl + B4A1 (wild type) medium 10 μl
[16] = variant medium 50 μl + B4A1 (wild type) medium 10 μl

OD405 (Factor Xa chromogenic activity, S-2222) [1]: 0.055 OD405
Clotting time [2]: 158 s
inhibition of Factor Xa chromogenic activity on baboon smooth muscle cells [3]: > 90%
Molecule: DEGR-Factor VIIa (from UniProt P08709) (enzyme)

Percent FVIIa Activity [5, 12]: 74%
Percent FVIIa Activity [5, 13]: 56%
Percent FVIIa Activity [5, 14]: 46%
Percent FVIIa Activity [5, 15]: 41%
Percent FVIIa Activity [5, 16]: 32%
Molecule: Modified Factor VII (#6): human Factor VII Ser344→Ala variant, clone #6
Clotting time ([4]; dilution 1:1): 33.5 s

Percent FVIIa Activity [5, 12]: 70%
Percent FVIIa Activity [5, 13]: 51%
Percent FVIIa Activity [5, 14]: 43%
Percent FVIIa Activity [5, 15]: 34%
Percent FVIIa Activity [5, 16]: 28%
Molecule: Modified Factor VII (#10): human Factor VII Ser344→Ala variant, clone #10
Clotting time ([4]; dilution 1:1): 32.5 s

Molecule: Wild-type Factor VII: recombinant wild-type Factor VII used as a control
Clotting time ([4]; dilution 1:20): 19.0 s
Clotting time ([4]; dilution 1:40): 21.5 s
Clotting time ([4]; dilution 1:80): 23.3 s

Molecule: heparin
half-life [6]: approximately 80 minutes

Percent FVIIa Activity [7]: 28%
Molecule: human Factor VII Ser344→Ala variant (from UniProt P08709) (enzyme)

Percent FVIIa Activity [7]: 78%
Molecule: human Factor VII Ser344→Ala variant expressed without vitamin K (from UniProt P08709) (enzyme)

OD405 (Factor Xa chromogenic activity, S-2222) [8]: 0.79 OD405
OD405 (Factor Xa chromogenic activity, S-2222) [9]: 0.342 OD405
OD405 (Factor Xa chromogenic activity, S-2222) [10]: 0.36 OD405
OD405 (Factor Xa chromogenic activity, S-2222) [11]: 0.208 OD405
Molecule: recombinant human Factor VIIa (from UniProt P08709) (enzyme)

Percent FVIIa Activity [5, 13]: 78%
B1: #10 (−K): Ser344→Ala variant clone #10 expressed by cells grown without vitamin K (protein, UniProt P08709 1-466, looked up, variant S344A)
chain: MVSQALRLLCLLLGLQGCLAAGGVAKASGGETRDMPWKPGPHRVFVTQEEAHGVLHRRRRANAFLEELRPGSLERECKEEQCSFEEAREIFKDAERTKLFWISYSDGDQCASSPCQNGGSCKDQLQSYICFCLPAFEGRNCETHKDDQLICVNENGGCEQYCSDHTGTKRSCRCHEGYSLLADGVSCTPTVEYPCGKIPILEKRNASKPQGRIVGGKVCPKGECPWQVLLLVNGAQLCGGTLINTIWVVSAAHCFDKIKNWRNLIAVLGEHDLSEHDGDEQSRRVAQVIIPSTYVPGTTNHDIALLRLHQPVVLTDHVVPLCLPERTFSERTLAFVRFSLVSGWGQLLDRGATALELMVLNVPRLMTQDCLQQSRKVGDSPNITEYMFCAGYSDGSKDSCKGDAGGPHATHYRGTWYLTGIVSWGQGCATVGHFGVYTRVSQYIEWLQKLMRSEPRPGVLLRAPFP
modifications: expressed without vitamin K
notes: Ser344→Ala variant clone #10 expressed by cells grown without vitamin K

Percent FVIIa Activity [5, 13]: 85%
B2: #6 (−K): Ser344→Ala variant clone #6 expressed by cells grown without vitamin K (protein, UniProt P08709 1-466, looked up, variant S344A)
chain: MVSQALRLLCLLLGLQGCLAAGGVAKASGGETRDMPWKPGPHRVFVTQEEAHGVLHRRRRANAFLEELRPGSLERECKEEQCSFEEAREIFKDAERTKLFWISYSDGDQCASSPCQNGGSCKDQLQSYICFCLPAFEGRNCETHKDDQLICVNENGGCEQYCSDHTGTKRSCRCHEGYSLLADGVSCTPTVEYPCGKIPILEKRNASKPQGRIVGGKVCPKGECPWQVLLLVNGAQLCGGTLINTIWVVSAAHCFDKIKNWRNLIAVLGEHDLSEHDGDEQSRRVAQVIIPSTYVPGTTNHDIALLRLHQPVVLTDHVVPLCLPERTFSERTLAFVRFSLVSGWGQLLDRGATALELMVLNVPRLMTQDCLQQSRKVGDSPNITEYMFCAGYSDGSKDSCKGDAGGPHATHYRGTWYLTGIVSWGQGCATVGHFGVYTRVSQYIEWLQKLMRSEPRPGVLLRAPFP
modifications: expressed without vitamin K
notes: Ser344→Ala variant clone #6 expressed by cells grown without vitamin K
